B1: KCNA3 (parent)
chain: YQSGGRIRRPVNVPIDIFSEEIRF

The text below walks through data of the supplement of paper PMC10567573.
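Further: lentivirally expressed fusions sorted by FACS into six bins by GFP to DsRed ratio, PSI derived from sequencing read proportions per bin multiplied by bin number.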

Variants of B1 are the subject of the data set. In words: protein stability index of a GFP-peptide fusion (GPS, HEK-293T) (PSI 1-6); higher = more stable. The following applies: c terminus: a fixed tail appended.
Turning to YQSGGRIRRPVNVPIDIFLEEIRF, the protein stability index was 1.41.

Regarding YQSGGRIRRPVNVPIDIFREEIRF, the protein stability index was 1.64. As for YQSGGRIRRPVNVPIDIFYEEIRF, the protein stability index was 2.4.

YQSGGRIRRPVNVPIDIFHEEIRF: the protein stability index turned out to be 1.49. As for YQSGGRIRRPVNVPIDIFGEEIRF, the protein stability index turned out to be 2.52. Then YQSGGRIRRPVNVPIDIFKEEIRF, with 1.54.

Turning to YQSGGRIRRPVNVPIRIFSEEIRF, the protein stability index was determined as 1.64. Consider YQSGGRIRRPVNVPITIFSEEIRF, for which the protein stability index turned out to be 2.51. Then YQSGGRIRRPVNVPIIIFSEEIRF, with 2.51; and YQSGGRIRRPVNVPIGIFSEEIRF, with 1.73; and YQSGGRIRRPVNVPILIFSEEIRF, with 1.88. Then YQSGGRIRRPVNVPICIFSEEIRF, with 1.41; and YQSGGRIRRPVNVPIPIFSEEIRF, with 2.34.

As for YQSGGRIRRPVNVPIKIFSEEIRF, the protein stability index worked out at 1.8. For YQSGGRIRRPVNVPISIFSEEIRF, the protein stability index came out at 2.42.

YQSGGRIRRPVNVPINIFSEEIRF: the protein stability index is 2.01. Then YQSGGRIRRPVNVPIWIFSEEIRF, with 1.87.

With YQSGGRIRRPVNVPIVIFSEEIRF, the protein stability index is 1.19. Turning to YQSGGRIRRPVNVPIQIFSEEIRF, the protein stability index came to 2.61.

As for YQSGGRIRRPVNVPIYIFSEEIRF, the protein stability index is 1.39. For YQSGGRIRRPVNVPIFIFSEEIRF, the protein stability index came out at 1.33. Then YQSGGRIRRPVNVPIAIFSEEIRF, with 3.22. In the case of YQSGGRIRRPVNVPIMIFSEEIRF, the protein stability index was 1.73. As for YQSGGRIRRPVNVPIHIFSEEIRF, the protein stability index worked out at 1.84.

As for YQSGGRIRRPVNVPYDIFSEEIRF, the protein stability index was found to be 1.63. Then YQSGGRIRRPVNVPMDIFSEEIRF, with 2.13; and YQSGGRIRRPVNVPNDIFSEEIRF, with 2.36; and YQSGGRIRRPVNVPFDIFSEEIRF, with 1.48. Then YQSGGRIRRPVNVPPDIFSEEIRF, with 2.03.

For YQSGGRIRRPVNVPKDIFSEEIRF, the protein stability index is 2.19. Then YQSGGRIRRPVNVPEDIFSEEIRF, with 2.11; and YQSGGRIRRPVNVPCDIFSEEIRF, with 2.13; and YQSGGRIRRPVNVPRDIFSEEIRF, with 2.41. Then YQSGGRIRRPVNVPGDIFSEEIRF, with 2.4.

YQSGGRIRRPVNVPDDIFSEEIRF: the protein stability index was 2.33. Then YQSGGRIRRPVNVPQDIFSEEIRF, with 2.56; and YQSGGRIRRPVNVPSDIFSEEIRF, with 2.69; and YQSGGRIRRPVNVPLDIFSEEIRF, with 1.83. Then YQSGGRIRRPVNVPHDIFSEEIRF, with 2.16.

For YQSGGRIRRPVNVPADIFSEEIRF, the protein stability index was found to be 3.48. Then YQSGGRIRRPVNVPTDIFSEEIRF, with 2.37; and YQSGGRIRRPVNVPWDIFSEEIRF, with 1.92; and YQSGGRIRRPVNVPIDIFSEEIRA, with 2.53. Then YQSGGRIRRPVNVPIDIFSEEIRC, with 2.32. Then YQSGGRIRRPVNVPIDIFSEEIRD, with 2.1; and YQSGGRIRRPVNVPIDIFSEEITF, with 1.62. As to YQSGGRIRRPVNVPIDIFSEEILF, the protein stability index is 1.28. Then YQSGGRIRRPVNVPIDIFSEEINF, with 1.77; and YQSGGRIRRPVNVPIDIFSEEIWF, with 1.05; and YQSGGRIRRPVNVPIDIFSEEIVF, with 1.68. Then YQSGGRIRRPVNVPIDIFSEEIMF, with 1.67. Consider YQSGGRIRRPVNVPIDIFSEEICF, for which the protein stability index came to 1.23.

Consider YQSGGRIRRPVNVPIDIFSEEIPF, for which the protein stability index was found to be 1.97.

Take YQSGGRIRRPVNVPIDIFSEEIKF: the protein stability index stood at 2.3.

With YQSGGRIRRPVNVPIDIFSEEIFF, the protein stability index came out at 1.53. Then YQSGGRIRRPVNVPIDIFSEEIQF, with 1.72; and YQSGGRIRRPVNVPIDIFSEEIDF, with 3; and YQSGGRIRRPVNVPIDIFSEEIHF, with 2.37.

As to YQSGGRIRRPVNVPIDIFSEEIEF, the protein stability index worked out at 2.19.

Take YQSGGRIRRPVNVPIDIFSEEIAF: the protein stability index worked out at 2.29. Then YQSGGRIRRPVNVPIDIFSEEGRF, with 1.68; and YQSGGRIRRPVNVPIDIFSEEQRF, with 2.86.

On to YQSGGRIRRPVNVPIDIFSEEMRF, for which the protein stability index came to 2.29. For YQSGGRIRRPVNVPIDIFSEEVRF, the protein stability index is 3.48.

Turning to YQSGGRIRRPVNVPIDIFSEELRF, the protein stability index was 2.06. Then YQSGGRIRRPVNVPIDIFSEEHRF, with 2.71; and YQSGGRIRRPVNVPIDIFSEEKRF, with 2.31; and YQSGGRIRRPVNVPIDIFSEEARF, with 1.34.

Regarding YQSGGRIRRPVNVPIDIFSEESRF, the protein stability index was 2.29.

YQSGGRIRRPVNVPIDIFSEEPRF: the protein stability index stood at 1.98. Then YQSGGRIRRPVNVPIDIFSEETRF, with 2.2. As for YQSGGRIRRPVNVPIDIFSEERRF, the protein stability index worked out at 2.68.

In the case of YQSGGRIRRPVNVPIDIFSEEFRF, the protein stability index was 1.69. Then YQSGGRIRRPVNVPIDIFSEENRF, with 2.82. Then YQSGGRIRRPVNVPIDIFSEEYRF, with 1.8; and YQSGGRIRRPVNVPIDIFSEEDRF, with 2.5; and YQSGGRIRRPVNVPIDINSEEIRF, with 3.17. Take YQSGGRIRRPVNVPIDIRSEEIRF: the protein stability index turned out to be 2.11. For the variant YQSGGRIRRPVNVPIDICSEEIRF, the protein stability index is 2.36.

For the variant YQSGGRIRRPVNVPIDILSEEIRF, the protein stability index was found to be 2.63. Then YQSGGRIRRPVNVPIDIPSEEIRF, with 2.55; and YQSGGRIRRPVNVPIDIDSEEIRF, with 2.3; and YQSGGRIRRPVNVPIDIASEEIRF, with 2.68. Then YQSGGRIRRPVNVPIDIISEEIRF, with 1.49; and YQSGGRIRRPVNVPIDIHSEEIRF, with 2.29; and YQSGGRIRRPVNVPIDIMSEEIRF, with 2.35.

Consider YQSGGRIRRPVNVPIDIKSEEIRF, for which the protein stability index came out at 1.99.

For YQSGGRIRRPVNVPIDIESEEIRF, the protein stability index was found to be 3.23. Regarding YQSGGRIRRPVNVPIDITSEEIRF, the protein stability index turned out to be 2.4. Then YQSGGRIRRPVNVPIDIVSEEIRF, with 2.41.

Turning to YQSGGRIRRPVNVPIDIYSEEIRF, the protein stability index was found to be 2.2. With YQSGGRIRRPVNVPIDISSEEIRF, the protein stability index came to 2.8.

Regarding YQSGGRIRRPVNVPIDIGSEEIRF, the protein stability index is 2.49. Take YQSGGRIRRPVNVPIDIQSEEIRF: the protein stability index was found to be 1.81.
